Laboratory results taken from US20110263014A1, “Cleavage of Nanog by Caspases Mediates the Differentiation of Embryonic Stem Cells” (BAYLOR COLLEGE OF MEDICINE, priority 2008, published 2011).
“Also recorded” adds a separate entry of the source.

Legend:
caspase-3 = target: T1, caspase-3 (Homo sapiens, UniProt P42574); experiment: caspase-3 activity assay (CaspGlo) with Nanog cleavage site peptides; type: biochemical; details: FIG. 10B
T1 construct: purchased BD Bioscience 556471
T1 sequence (P42574 29-175 limits assumed): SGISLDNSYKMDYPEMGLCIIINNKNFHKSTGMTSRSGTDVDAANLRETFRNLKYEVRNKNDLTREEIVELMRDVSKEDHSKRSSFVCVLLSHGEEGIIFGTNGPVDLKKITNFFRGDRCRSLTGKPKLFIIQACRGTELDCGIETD
T1 sequence (P42574 176-277 limits assumed): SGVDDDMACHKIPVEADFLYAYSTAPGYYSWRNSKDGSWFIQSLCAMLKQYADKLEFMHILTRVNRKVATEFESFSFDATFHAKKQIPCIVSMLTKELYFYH
Method: Trypsinized ES cells (R1; 200,000; D3 250,000) were plated into 6 wells containing normal ES cell medium, and on the next day the medium was changed to 1 μM RA differentiation medium. Cells were harvested with trypsin-EDTA (Invitrogen, cat. no. 25300-054), and protein extracts were made in 0.1% CHAPS buffer, pH 7.2 (50 mM Hepes; 150 mM KCl; 1× protease inhibitors (Roche, cat. no. 1697498001); 2 mM Na fluoride and orthovanadate, respectively, at specified time points. The CaspGlo (Promega, cat. no. G8091) kit was used to directly measure caspase activity. Before determining caspase activity, we tested the system for variability within the dynamic range, using recombinant caspase-3 (BD Bioscience, cat. no. 556471). The signal was measured with the Wallac 1429 Victorll instrument (Perkin-Elmer, Wellesley, Mass.).

R1 ES cells = experiment: Apoptosis rate (counting apoptotic bodies); type: cell-based, mouse; details: over 72 hours post-stimulation with RA
Method: R1 ES cells (1×10^5) were plated into 6-cm dishes on irradiated MEFs and stimulated with RA differentiation medium for up to 72 hours. Cells were fixed with 4% paraformaldehyde (EMS, cat. no. 15710), stained with DAPI and mounted with Vectashield (Vector Lab, cat. no. H1200). The number of apoptotic figures was determined in triplicate per 100 cells. As a positive control, ES cells were incubated with staurosporine (Sigma, cat. no. 55921, 1 μM) for 4 hours.

Compound	inhibition / targeting of caspase-3 by cleavage site peptide (caspase-3)	percentage of cells undergoing apoptosis (R1 ES cells)
GSPD: mNanog caspase cleavage site peptide	effectively inhibit caspase-3; also recorded: still targeted by caspase-3	–
DSPD: hNanog caspase cleavage site peptide	effectively inhibit caspase-3	–
CC1=C(/C=C/C(C)=C/C=C/C(C)=C/C(=O)O)C(C)(C)CCC1 [RA, retinoic acid]	–	essentially no increases
